For this test, the target named is Recombinant full-length WAVE2 tagged with GST at its COOH terminus (UniProt Q9Y6W5 1-498). Description: dual polarization interferometry.
Chain of Recombinant full-length WAVE2 tagged with GST at its COOH terminus (Q9Y6W5 whole entry): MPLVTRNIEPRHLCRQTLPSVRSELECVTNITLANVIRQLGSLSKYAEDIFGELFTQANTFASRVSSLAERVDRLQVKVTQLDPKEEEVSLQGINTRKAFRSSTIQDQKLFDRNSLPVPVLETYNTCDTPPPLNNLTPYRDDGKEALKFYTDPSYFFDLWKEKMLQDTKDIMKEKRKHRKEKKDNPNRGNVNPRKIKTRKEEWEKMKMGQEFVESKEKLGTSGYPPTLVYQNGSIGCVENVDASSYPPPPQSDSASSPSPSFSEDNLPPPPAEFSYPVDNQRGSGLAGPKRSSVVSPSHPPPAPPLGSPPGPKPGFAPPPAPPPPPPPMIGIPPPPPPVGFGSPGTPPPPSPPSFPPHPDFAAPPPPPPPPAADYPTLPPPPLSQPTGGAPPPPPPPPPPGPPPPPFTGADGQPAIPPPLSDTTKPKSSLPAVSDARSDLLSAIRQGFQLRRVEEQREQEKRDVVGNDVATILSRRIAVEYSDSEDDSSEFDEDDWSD

B1: Coiled-coil region of Abi1 (aa 6–124) (domain or fragment)
chain: MLLEEEIPSGKRALIESYQNLTRVADYCENNYIQATDKRKALEETKAYTTQSLASVAYQINALANNVLQLLDIQASQLRRMESSINHISQTVDIHKEKVARREIGILTTNKNTSRTHKI
For the molecule B1, the Kd was 600 nM.

The values are drawn from publication PMC2063866 (The Journal of Cell Biology, 2006).
